Target: the molecule itself
Assay: SEC-MALS; SEC-MALLS; about 200 µg of protein on a Superose 12 column with in-line MALLS detector; weight-averaged molecular weight in solution

B1: MBP-fused full length DEAF1, recombinant (natural protein, mouse, UniProt Q9Z1T5-1 1-566, looked up)
chain: MEDSDSAAKQLGLAEAAAVAAAAAVAAAAAAAAESEAEEPVLSRDEDSEEDADSEAERETRRVTAVAVMAAESGHMDMGTEALPSPDEAAAAAAAFAEVTTVTVANVGSSADNVFTTSVANAASISGHVLSGRTALQIGDSLNTEKATLIVVHTDGSIVETTGLKGPAAPLTPGPQSPPTPLAPGQEKGGTKYNWDPSVYDSELPVRCRNISGTLYKSRLGSGGRGRCIKQGENWYSPTEFEAMAGRASSKDWKRSIRYAGRPLQCLIQDGILNPHAASCTCAACCDDMTLSGPVRLFVPYKRRKKENELPTTPVKKDSPKNITLLPATAATTFTVTPSGQITTSGALTFDRASTVEATAVISESPAQGDVFAGATVQEAGVQPPCRVGHPEPHYPGYQDSCQIAPFPEAALPTSHPKIVLTSLPALAVPPSTPTKAVSPTVVSGLEMSEHRSWLYLEEMVNSLLNTAQQLKTLFEQAKQASSCREAAVTQARMQVDTERKEQSCVNCGREAMSECTGCHKVNYCSTFCQRKDWKDHQHVCGQSASVTVQADDVHVEESVIEKVAV
notes: DEAF1, mouse, NM_016874, full length; pMALC2 construct; about 10 subunits by SEC-MALLS, mixture of species; not shown: MBP, N-terminal, kept
Q: For B1, which “stoichiometry N” value is on record?
A: ~10 subunits

B2: MBP-fused DEAF1_(335–485), recombinant (domain or fragment, mouse, UniProt Q9Z1T5-1 335-485, looked up)
chain: TVTPSGQITTSGALTFDRASTVEATAVISESPAQGDVFAGATVQEAGVQPPCRVGHPEPHYPGYQDSCQIAPFPEAALPTSHPKIVLTSLPALAVPPSTPTKAVSPTVVSGLEMSEHRSWLYLEEMVNSLLNTAQQLKTLFEQAKQASSCR
notes: DEAF1, mouse, NM_016874; pMALC2 construct; not shown: MBP, N-terminal, kept
Q: How did the “stoichiometry N” value turn out when B2 was run?
A: 4 subunits

B3: DEAF1_(404–479), recombinant protein for SEC-MALLS (domain or fragment, mouse, UniProt Q9Z1T5-1 404-479, looked up)
chain: IAPFPEAALPTSHPKIVLTSLPALAVPPSTPTKAVSPTVVSGLEMSEHRSWLYLEEMVNSLLNTAQQLKTLFEQAK
notes: DEAF1, mouse, NM_016874; source: recombinant
Q: Does B3 bind?
A: binds

B4: GB1-tagged DEAF1_(454–487), isolated coiled coil, recombinant (domain or fragment, mouse, UniProt Q9Z1T5-1 454-487, looked up)
chain: WLYLEEMVNSLLNTAQQLKTLFEQAKQASSCREA
notes: DEAF1, mouse, NM_016874; source: E. coli Rosetta 2, purified (DEAE sepharose, Ni-NTA); not shown: His6, N-terminal, kept; GB1 (Gβ-1 domain of streptococcal protein G), N-terminal, kept
Q: B4 was tested. Which “stoichiometry N” value did it give?
A: 4 subunits

Source: article PMC3378519, “Contribution of DEAF1 Structural Domains to the Interaction with the Breast Cancer Oncogene LMO4” (PLoS ONE, 2012)
